In patent US5789538:

Biological target: Zif268 finger 1 variant phage pool, CCTG selection round 5 finger 1 positions -1, 2, 3, 6 randomized (four NNS codons), pool (UniProt P08046)
Assay: SELEX
Conditions: [none], phage display pool, no enrichment, 0.45 M NaCl washes, 10 uM ZnCl2, 5 mM MgCl2

**Q.** With “CTGAGCGTGGCCTGAGTGATCGATC / CACTCAGGCCACGCTCAG [CCTG duplex]” as the sequence, how does the activity (% phage retention) read?
**A.** < 0.001
